Experimental data from PMC6025902 (Science Advances, 2018).

Target: monomeric amyloid-β peptide 1–42 (Aβ42) (human, UniProt P05067 672-713)
Experiment: ITC

B1: S100B protein (natural protein)
chain: MSELEKAMVALIDVFHQYSGREGDKHKLKKSELKELINNELSHFLEEIKEQEVVDKVMETLDNDGDGECDFQEFMAFVAMVTTACHEFFEHE
  Kd: 590 ± 230 nM
  dH: -0.947 ± 0.0295 kcal/mol
  stoichiometry N: 2.37 ± 0.07
